Assay results as given in US20070196350A1, “Compositions and Methods for Effecting Controlled Posterior Vitreous Detachment” (priority 2006, published 2007).
Several values for one entry are separate records, joined by “and”; a condition that tells them apart may be missing. Identical values can stand only once.

Tested on: eyes from Dutch Belted Rabbits (vitreoretinal interface)
Test: Ex vivo SEM scoring of residual vitreous (posterior vitreous detachment) after intravitreal injection in rabbit eyes
Design: key to Score of vitreo-retinal specimen, IN (Infra-Nasal Area) / Score of vitreo-retinal specimen, INL (Infra-Nasal Inferior Area) / Score of vitreo-retinal specimen, IC (Infra-Central Area) / Score of vitreo-retinal specimen, ICL (Infra-Central Lower Area) / Score of vitreo-retinal specimen, IT (Infra-Temporal Area) / Score of vitreo-retinal specimen, ITL (Infra-Temporal Lower Area): Grade 0 - extensive amount of residual vitreous; Grade 1 - moderate amount of residual vitreous; Grade 2 - mild amount of residual vitreous; Grade 3 - Inner retina visible through sparse collagen fibrils; Grade 4 - None to trace collagen fibrils covering inner retina
Procedure: The purpose of this ex vivo study was to compare the efficacy of 200 μg human-derived plasmin (Bausch & Lomb Incorporated's compound name “BOL-303209-X”) alone and in combination with triamcinolone acetonide (“TA,” a glucocorticoid anti-inflammatory medicament) on PVD in Dutch Belted Rabbits using scanning electron microscopy. This study was designed to use intravitreal injection of TA to enhance clinical observations for clear identification of PVD, to minimize possible inflammatory responses, and to assess whether improved efficacy could be achieved by the combined use of BOL-303209-X and TA.
Twelve (12) normal eyes from six (6) Dutch Belted Rabbits (both male and female) were used. All right eyes from 6 rabbits were injected with BOL-303209-X plus vehicle (Group 1, n=6 eyes) and all left eyes were injected with BOL-303209-X plus TA (Group 2, n=3, 2 mg TA/eye; Group 3, n=3, 4 mg TA/eye). BOL-303209-X was freshly prepared and kept on ice before use.
On the day of operation, rabbits were anesthetized, eyes disinfected and pupils dilated 15-20 minutes prior to injection. Each rabbit received two intravitreal injections. In Groups 1, 2, and 3, an initial 50-μl injection of BOL-303209-X at a dose of 200 μg per eye in a formulation of 5 mM epsilon-aminocaproic acid (“EACA”)/0.05% Tween 80/0.9% saline was given intravitreally in both the right and left eyes. In Group 1 (Control) a second 50-μl injection of formulation vehicle (0.05% Tween 80/0.05% hydroxypropyl methylcellulose (HPMC)/0.9% saline) was delivered in the right eyes 5 minutes after the first injection. In Groups 2 and 3, a formulation containing TA at a dose of either 2 mg (Group 2) or 4 mg (Group 3) was injected into the left eyes in the same way.
Eyes were examined with a slit-lamp biomicroscope assisted with a Volk Lens at 4 days prior to injection for baseline documentation. To evaluate the efficacy of BOL-303209-X, all eyes were directly observed under a surgical microscope for 5 minutes after injection for possible changes in the vitreo-retina. The injected eyes were followed up at 7 and 14 days after injection. Attention was paid particularly to the vitreoretinal interface for signs of PVD and to the retina for signs of toxicity during slit-lamp examination.
Fourteen days after injection the in-life phase of the study was terminated, the rabbits were euthanized by over dose of pentobarbital, their eyes enucleated and fixed in Karnovsky's solution for at least 24 hours. The fixed eyes were processed further for SEM. The posterior pole of each eye was examined. Micrographs at magnifications ranging from 100-2,500× of each specimen or up to 10,000× in some cases were examined to assess the extent of posterior vitreous detachment. The amount of residual vitreous was scored on a scale of 0-4 with a score of 4 representing complete removal of vitreous from the inner retina according to a standard protocol.
After enucleation, the eyes were trimmed of external muscle, fat, and connective tissue, and cut using a razor blade about 3 mm behind the limbus to facilitate penetration of fixative. The eyes were placed in ice-cold fixative consisting of 2% formaldehyde (from paraformaldehyde), 2.5% glutaraldehyde, in 0.1 phosphate buffer, with 0.1 M sucrose and 0.5 mM CaCl2 added, pH 7.2. Each eye was immersed in approximately 40 ml fixative. After one hour, the fixative was exchanged with fresh fixative and the eyes were transported to B&L and stored refrigerated in fixative.
Tissue specimen that included sclera, choroid, retina with the optic nerve (approximately 1 cm in diameter) were surgically removed from each eye. These were dehydrated though a graded ethanol series (30%, 50%, 70%, 85%, 95%, 100%) for thirty minutes per dilution. Dehydrated samples were dried to the critical point (Samdri-PVT-3B, Tousimis, Rockville, Md.) and mounted on aluminum SEM pucks with colloidal graphite (Ted Pella, Inc, Redding, Calif.). […]

[1] = Group 1: 200 μg BOL-303209-X per eye + vehicle, SEM day 14, scale 0-4, one value per eye

B1: BOL-303209-X: human-derived plasmin (Bausch & Lomb Incorporated's compound name “BOL-303209-X”) (protein, UniProt P00747 20-580; P00747 581-810, looked up)
Plasmin heavy chain A: EPLDDYVNTQGASLFSVTKKQLGAGSIEECAAKCEEDEEFTCRAFQYHSKEQQCVIMAENRKSSIIIRMRDVVLFEKKVYLSECKTGNGKNYRGTMSKTKNGITCQKWSSTSPHRPRFSPATHPSEGLEENYCRNPDNDPQGPWCYTTDPEKRYDYCDILECEEECMHCSGENYDGKISKTMSGLECQAWDSQSPHAHGYIPSKFPNKNLKKNYCRNPDRELRPWCFTTDPNKRWELCDIPRCTTPPPSSGPTYQCLKGTGENYRGNVAVTVSGHTCQHWSAQTPHTHNRTPENFPCKNLDENYCRNPDGKRAPWCHTTNSQVRWEYCKIPSCDSSPVSTEQLAPTAPPELTPVVQDCYHGDGQSYRGTSSTTTTGKKCQSWSSMTPHRHQKTPENYPNAGLTMNYCRNPDADKGPWCFTTDPSVRWEYCNLKKCSGTEASVVAPPPVVLLPDVETPSEEDCMFGNGKGYRGKRATTVTGTPCQDWAAQEPHRHSIFTPETNPRAGLEKNYCRNPDGDVGGPWCYTTNPRKLYDYCDVPQCAAPSFDCGKPQVEPKKCPGR
Plasmin light chain B: VVGGCVAHPHSWPWQVSLRTRFGMHFCGGTLISPEWVLTAAHCLEKSPRPSSYKVILGAHQEVNLEPHVQEIEVSRLFLEPTRKDIALLKLSSPAVITDKVIPACLPSPNYVVADRTECFITGWGETQGTFGAGLLKEAQLPVIENKVCNRYEFLNGRVQSTELCAGHLAGGTDSCQGDSGGPLVCFEKDKYILQGVTSWGLGCARPNKPGVYVRVSRFVTWIEGVMRNN
modifications: plasmin plasma-derived
Group 1 (n=6 eyes): 200 μg BOL-303209-X per eye + vehicle
  n ≧ 3, number of eyes of the group with mean score of 3 or higher: 2
Group 1 (n=6 eyes): 200 μg BOL-303209-X per eye + vehicle, SEM day 14, scale 0-4
  Mean score of the group: 2.6
[1]
  Mean score of 6 inferior fields, per eye: 3.2 and 2.8 and 2.5 and 1.7 and 3.0
  Score of vitreo-retinal specimen, IC (Infra-Central Area): 4 and 3
  Score of vitreo-retinal specimen, ICL (Infra-Central Lower Area): 3 and 2 and 1
  Score of vitreo-retinal specimen, INL (Infra-Nasal Inferior Area): 3 and 1
  Score of vitreo-retinal specimen, IT (Infra-Temporal Area): 3 and 2
  Score of vitreo-retinal specimen, ITL (Infra-Temporal Lower Area): 3 and 2 and 1
Group 1: 200 μg BOL-303209-X per eye + vehicle, per-eye count
  n ≧ 3 (eye with mean score of 3 or higher), per eye: 1
Group 1: 200 μg BOL-303209-X per eye intravitreal + second injection of vehicle, SEM 14 days after injection, scale 0-4, one value per eye
  Score of vitreo-retinal specimen, IN (Infra-Nasal Area): 3 and 2
